Residue numbers refer to the chain shown, from its start. Numbers in names are those of the source. Entries after “also recorded” stand apart in the source; their conditions may differ.
How the values were obtained:
[1] = system: strains bearing thyA:Val146 alleles; assay: Cysteine suppression of thyA:Val146 alleles on gradient plates; format: cell-based, E. coli; details: gradient starting at 100 mM L-cysteine, no thymidine
Experimental: […] Ile-Val (0.3 mM) was added in one plate as a control. The dipeptide Ile-Val was purchased from Bachem A G (Bubendorf, Switzerland). Plates were incubated for 2 days at 30° C.
We took advantage of the thyA conditional selection screen in E. coli, based on the absolute requirement for an active thymidylate synthase when thymidine is not provided as a growth factor (13). This same screen was used previously to assess the potency of suppressor Cys-tRNAs in codon misreading (14) and to enforce phenotypic suppression by the non-canonical azaleucine (15). An entire set of plasmid-borne thyA alleles with all 64 different codons at position 146 was constructed for altering the catalytic site occupied by an essential Cys (16, 17). Each allele was tested for its ability to restore growth to an E. coli strain (lacking the chromosomal copy of thyA) on mineral glucose medium in the absence of thymidine (14, 15). Three of the 64 plasmid-borne thyA alleles restored growth. These had one of three codons-UGU, UGC, or UGA. The growth responses of the UGU and UGC alleles were expected, as these code for cysteine.
Shallow growth was reproducibly observed on L-cysteine gradient plates (18) for the missense alleles having any of the eight codons AUN and GUN alone. […]

[2] = system: five different valS strains (editing mutants); format: cell-based, E. coli; details: at 2 mM
Experimental: (§1) FIG. 1C: Photographs showing the results of growth of a strain carrying the valS:T222P allele in the presence of L-threonine or Abu. Minimal medium plates supplemented with thymidine (0.3 mM) were pretreated with amino acid solutions by streaking either with Thr (50 μl (0.2 M)) or Abu (50 μl (0.1 M)) vertically along the diameter of the plate to create an amino acid gradient. Mutant (β5456) and wild-type (β5419 (thyA::erm+ ΔnrdD::kan+ pTS13 (bla+ thyA: 146GUA)) strains were then streaked horizontally across the plates and incubated for 2 days at 37° C.
(§2) ValRS is known to misactivate Thr and generate Thr-tRNA^Val, which normally is hydrolyzed by the ValRS editing activity (9). If the ValRS mutants in Table 1 are impared for editing, then strains bearing each of these mutations should misincoporate Thr into protein, and L-threonine would then be toxic in these strains. The growth of the five different valS strains was therefore tested in the presence of L-threonine.

[3] = system: parent strain β5419; assay: Growth of parent strain in the presence of L-threonine; format: cell-based, E. coli; details: all concentrations
Experimental: as §1, §2

[4] = system: strain β5520; assay: Suppression of thymidine auxotrophy by S-carbamoyl-cysteine; format: cell-based, E. coli; details: absence of thymidine, aerobic
Experimental: One-step selection scheme. For the one-step selections, cysteine oxidation under aerobiosis and subsequent cystine precipitation from the growth medium was avoided by use of the non-oxidizable precursor S-carbamoyl-cysteine (Scc). Scc is a poor precursor of cysteine and sustains growth of a Cys-auxotrophic E. coli strain less efficiently than cysteine. However, at concentrations above 1 mM, Scc gave rise to suppression of the thymidine auxotrophy of strain β5520, while in the absence of thymidine no growth was detectable below 1 mM Scc. When β5419 cells bearing the thyA:Val146GUA allele on a high copy plasmid were plated on mineral glucose plates supplemented with Scc (3 mM), no colonies grew after prolonged incubation at 30° C. (The experiment was designed to detect a mutant at a frequency of 10^−10.) To increase the mutation frequency, a mutS::spc+ (33) mutator allele was introduced in the genetic background of strain β5419 by P1 transduction, yielding strain β5432 (the mutS::spc+ disruption disables the mismatch repair system and leads to random transitions and frameshifts (34)). Colonies then appeared on the same medium with a frequency of about 10^−8. No colonies were found on plates lacking Scc.

[5] = system: tRNA^Val; assay: Misacylation of tRNAVal with Thr; format: biochemical, E. coli; details: pH 7.5, 37° C.
Experimental: (§3) FIG. 2B: A graph showing misaminoacylation of tRNA^Val with Thr by the T222P mutant enzyme at pH 7.5 and 37° C. The wild-type (WT) and mutant alleles were cloned under the control of a PBAD promoter (30). The enzymes were partially purified from a laboratory strain lacking the chromosomal copy of the valS gene (ΔvalS::kan+). The purification and aminoacylation procedures were adapted from Hendrickson et al. (31). (Main panel) Misaminoacylation of tRNA^Val with Thr by the two enzymes. (Inset) Aminoacylation of tRNA^Val with Val by the two enzymes.
(§4) Aminoaclyation Assay, Misacylation, and Deacylation: Aminoacylation assays were performed at 37 C. in a 100 uL volume containing buffer (20 mM HEPES, 0.1 mM EDTA disodium salt, 0.15M NH4Cl, 10 ug/mL BSA pH 7.5), […] MgCl2, 0.7 μM [^3H]Val, 20 μM cold Val, 2 μM tRNAval (Sigma) and 20 nM ValRS enzyme (adapted from Hendrickson et al. 2000). Aliquots (10 μL) of the reaction mixture were precipitated with tricholoracetic acid, and the level of aminoacylation of the tRNA was determined by scintillation counting.
(§5) Misacylation of Thr onto tRNAval was performed in the same conditions except 5.86 μM [^3H]Thr was substituted forVal in the reaction. To test deacylation rates for these enzymes it was necessary to generate [^3H]Thr-tRNAval. […] Enzyme was incubated with 2.5 μM tRNAval and 45 uM [^3H]Thr, incubated at 37 C. for 45 minutes, extracted twice in phenol:chloroform, and ethanol precipitated. Pellet was dissolved in 100 μL sterile H2O and scintillation counting was used to determine the success of the reaction. Deacylation reactions, done in triplicate for each enzyme, were performed in 155 mM Tris-HCl (pH 7.5), 100 μg/ml BSA, 10 mM MgCl2. At room temperature 2 nM enzyme was combined with [^3H]Thr-tRNAval, at 3, 6, 9, 16, and 30 minutes aliquots (9 μL) of the reaction mixture were precipitated with tricholoracetic acid, and the amount of misaminoacylated [^3H]Thr-tRNAval remaining in the sample was determined by scintillation counting. A no enzyme control reaction was included to provide reference point.

[6] = system: tRNA^Val; assay: Aminoacylation of tRNAVal with Val; format: biochemical, E. coli; details: pH 7.5, 37° C.
Experimental: as §3, §4

[7] = system: tRNA^Val; assay: Misacylation of tRNAVal with cysteine; format: biochemical, E. coli
Text: The T222P mutant enzyme was, therefore, expressed and partially purified so that it could be directly assayed for the ability to misacylate tRNA^Val.

[8] = system: [^3H]Thr-tRNAval; assay: Deacylation of mischarged Thr-tRNAVal by ValRS enzymes; format: biochemical, E. coli; details: 2 nM enzyme, room temperature
Experimental: FIG. 5B: Histogram representation of the inhibition zone diameters of DvalS::kanR strains harboring each of the ValRS editing mutants on plasmid in response to exogenous Abu. Effects range from mild to severe. Histogram representation of the percentage of mischarged Thr-tRNAVal remaining after incubation with 2 nM enzyme for 15 minutes at room temperature. Both show a distinct range in the severity of editing defects caused by these point mutations. Taken together this illustrates a correlation between the ability of the mutant enzyme to deacylate mischarged amino acids from tRNAVal in vitro and the degree of in vivo toxicity.
as §5

## N[C@@H](CS)C(=O)O [L-cysteine]
[1]
  suppression of thyA:Val146 alleles: weak

## C[C@@H](O)[C@H](N)C(=O)O [L-threonine]
[2]
  sensitivity of growth to exogenous L-threonine: high sensitivity
[3]
  sensitivity of growth to exogenous L-threonine: insensitive

## NC(=O)SC[C@H](N)C(=O)O [Scc, S-carbamoyl-cysteine]
[4]
  concentration giving suppression of the thymidine auxotrophy: above 1 mM

B1: T222P (protein, UniProt P07118 1-951, looked up, variant T222P)
Valine--tRNA ligase: MEKTYNPQDIEQPLYEHWEKQGYFKPNGDESQESFCIMIPPPNVTGSLHMGHAFQQTIMDTMIRYQRMQGKNTLWQVGTDHAGIATQMVVERKIAAEEGKTRHDYGREAFIDKIWEWKAESGGTITRQMRRLGNSVDWERERFTMDEGLSNAVKEVFVRLYKEDLIYRGKRLVNWDPKLRTAISDLEVENRESKGSMWHIRYPLADGAKTADGKDYLVVATPRPETLLGDTGVAVNPEDPRYKDLIGKYVILPLVNRRIPIVGDEHADMEKGTGCVKITPAHDFNDYEVGKRHALPMINILTFDGDIRESAQVFDTKGNESDVYSSEIPAEFQKLERFAARKAVVAAVDALGLLEEIKPHDLTVPYGDRGGVVIEPMLTDQWYVRADVLAKPAVEAVENGDIQFVPKQYENMYFSWMRDIQDWCISRQLWWGHRIPAWYDEAGNVYVGRNEDEVRKENNLGADVVLRQDEDVLDTWFSSALWTFSTLGWPENTDALRQFHPTSVMVSGFDIIFFWIARMIMMTMHFIKDENGKPQVPFHTVYMTGLIRDDEGQKMSKSKGNVIDPLDMVDGISLPELLEKRTGNMMQPQLADKIRKRTEKQFPNGIEPHGTDALRFTLAALASTGRDINWDMKRLEGYRNFCNKLWNASRFVLMNTEGQDCGFNGGEMTLSLADRWILAEFNQTIKAYREALDSFRFDIAAGILYEFTWNQFCDWYLELTKPVMNGGTEAELRGTRHTLVTVLEGLLRLAHPIIPFITETIWQRVKVLCGITADTIMLQPFPQYDASQVDEAALADTEWLKQAIVAVRNIRAEMNIAPGKPLELLLRGCSADAERRVNENRGFLQTLARLESITVLPADDKGPVSVTKIIDGAELLIPMAGLINKEDELARLAKEVAKIEGEISRIENKLANEGFVARAPEAVIAKEREKLEGYAEAKAKLIEQQAVIAAL
[5]
  misacylation of tRNA^Val with Thr: high levels of mischarged Thr-tRNA^Val; also recorded: misacylated tRNA^Val with Thr
[6]
  activity for charging tRNA^Val with valine: same activity as the wild-type enzyme
[7]
  misacylation of tRNA^Val with cysteine: catalyzed only by the mutant enzyme
[8]
  deacylation of Thr-tRNA^Val in vitro: most severe defects

B2: V276A: ValRS of E. coli with single substitution V276A in the editing domain (protein, UniProt P07118 1-951, looked up, variant V276A)
Valine--tRNA ligase: B1 Valine--tRNA ligase with P222T, V276A
[5]
  misacylation of tRNA^Val with Thr: low levels of mischarging
[8]
  deacylation of Thr-tRNA^Val in vitro: closer to wild-type ValRS
